According to publication PMC9992855, “Functional polyamine metabolic enzymes and pathways encoded by the virosphere” (Proceedings of the National Academy of Sciences of the …, 2023):

Test system: N=C(N)NCCC[C@H](N)C(=O)O
Test: purified protein
Conditions: 27 °C
From the text: decarboxylase activity assay on Ca. Fonsibacter ubiquis "ODC" (ODC/ADC)

Ca. Fonsibacter ubiquis "ODC" (ODC/ADC) (unidentified)
Km: 1300 ± 120 µM
kcat: 2.2 ± 0.13 s⁻¹
kcat/Km: 1700 ± 91 M⁻¹ s⁻¹
